Assays:
[1] = biological target: human recombinant plasminogen activator inhibitor‐1 (stable PAI‐1 variant 14‐1B) (human) (UniProt P05121)
[2] = biological target: human recombinant plasminogen activator inhibitor‐1 (stable PAI‐1 variant 14‐1B) (human) (UniProt P05121); assay: SPR; anti‐PAI‐1 monoclonal antibody (Mab‐1) immobilised on a CM5 Biacore chip, PAI‐1 captured on it, uPA‐S195A variants applied from 25 nM to 48.8 pM; global fit to a 1:1 binding model; repeated three times
murine PAI‐1 (murine) = murine PAI‐1 (murine) (UniProt P22777)
[3] = biological target: human recombinant plasminogen activator inhibitor‐1 (stable PAI‐1 variant 14‐1B) (human) (UniProt P05121); remark: listed apart in the source
[4] = biological target: recombinant human plasminogen activator inhibitor‐2 (human) (UniProt P05120)
[5] = biological target: human α2‐antiplasmin (human) (UniProt P08697)
PN‐1 (human) = PN‐1 (human) (UniProt P07093)
[6] = biological target: human antithrombin‐III (human) (UniProt P01008)
[7] = biological target: endogenous plasma PAI‐1 (human (endogenous in plasma)) (UniProt P05121)
[8] = biological target: human recombinant plasminogen activator inhibitor‐1 (stable PAI‐1 variant 14‐1B) (human) (UniProt P05121); remark: listed apart in the source
[9] = biological target: human recombinant plasminogen activator inhibitor‐1 (stable PAI‐1 variant 14‐1B) (human) (UniProt P05121); remark: listed apart in the source

| Substance | IC50, chromogenic assay: recovery of uPA activity (S‐2444 hydrolysis) from inhibition by PAI‐1 (15 nM PAI‐1, 15 nM human uPA); blocks PAI‐1 + uPA [1] [nM] | Kd [2] [nM] | koff [2] [s⁻¹] | kon [2] [M⁻¹ s⁻¹] | also measured |
| --- | --- | --- | --- | --- | --- |
| PAItrap (uPA‐S195A‐G37bR‐R217L‐C122A‐N145Q) (domain or fragment) | 10 | 0.15 | 0.000627 | 4.11e+06 | IC50, chromogenic assay similar to that used for human PAI‐1; inhibition of murine PAI‐1 (murine PAI‐1 (murine)): 14 nM; IC50 of blocking PAI‐1 inhibition on tPA (Fig. S1); blocks PAI‐1 + tPA [3]: 14 nM; IC50, chromogenic assay: recovery of uPA activity (S2444) from inhibition by 15 nM PAI‐2, 15 nM uPA, 37°C; blocks PAI‐2 + uPA [4]: 14000 nM; IC50, chromogenic assay: plasmin activity (Gly‐Arg‐p‐nitroanilide) with 15 nM α2‐antiplasmin and 15 nM human plasmin; blocks α2‐antiplasmin + plasmin [5]: > 50000 nM; IC50, chromogenic assay: recovery of uPA activity (S2444) from inhibition by 15 nM PN‐1, 15 nM uPA, 37°C; blocks PN‐1 + uPA (PN‐1 (human)): 16000 nM; IC50, chromogenic assay: remaining thrombin activity (Gly‐Arg‐p‐nitroanilide) with 30 nM antithrombin‐III and 30 nM human α‐thrombin, 37°C; blocks antithrombin‐III + α‐thrombin [6]: 40000 nM; time to 50% clot lysis in platelet‐free plasma without exogenous PAI‐1: 100 pM tPA, 20 or 200 nM PAItrap (96 min without PAItrap); blocks PAI‐1 + tPA [7]: 68 min; clot lysis time in human platelet‐poor plasma: 2.4 nM tPA, 0.9 nM PAI‐1, 6.5 nM PAItrap; blocks PAI‐1 + tPA [8]: 6 min |
| uPA‐SPD S195A‐C122A‐N145Q (domain or fragment) | 109 | 1.57 | 0.00121 | 776000 | clot lysis time in human platelet‐poor plasma: 2.4 nM tPA, 0.9 nM PAI‐1, 6.5 nM uPA‐S195A; blocks PAI‐1 + tPA [9]: 39 min |
| uPA‐SPD S195A‐C122A‐N145Q‐Y149R (domain or fragment) | > 3000 |  |  |  |  |
| uPA‐SPD S195A‐C122A‐N145Q‐Y151F (domain or fragment) | 1000 |  |  |  |  |
| uPA‐SPD S195A‐C122A‐N145Q‐G37bR‐R217L‐A96E (domain or fragment) | 30 |  |  |  |  |

Further lines, with some results ahead:

| IC50, chromogenic assay: recovery of uPA activity (S‐2444 hydrolysis) from inhibition by PAI‐1 (15 nM PAI‐1, 15 nM human uPA); blocks PAI‐1 + uPA [1] [nM] | Kd [2] [nM] | koff [2] [s⁻¹] | kon [2] [M⁻¹ s⁻¹] | Substance | also measured |
| --- | --- | --- | --- | --- | --- |
| 3000 |  |  |  | uPA‐SPD S195A‐C122A‐N145Q‐Q192K (domain or fragment) |  |
| 90 | 0.83 | 0.00114 | 2.35e+06 | uPA‐SPD S195A‐C122A‐N145Q‐G37bR‐Y60bK (domain or fragment) |  |
| 26 |  |  |  | uPA‐SPD S195A‐C122A‐N145Q‐G37bR‐Y60bK‐R217L (domain or fragment) |  |
| 22 |  |  |  | uPA‐SPD S195A‐C122A‐N145Q‐A96E (domain or fragment) |  |
| 25 | 0.32 | 0.000698 | 2.3e+06 | uPA‐SPD S195A‐C122A‐N145Q‐G37bR (domain or fragment) |  |
| 48 | 0.63 | 0.00084 | 1.33e+06 | uPA‐SPD S195A‐C122A‐N145Q‐R217L (domain or fragment) |  |
